Test results taken from patent publication US20260174875A1 (Novo Nordisk A/S, priority 2023, published 2026).
Numbered stars: 1 amine (or outer) side, 2 acyl side, 3 side chain; on linkers, the order of the positions; unused ones are H or OH. Square brackets hold non-standard residues; d marks the D form. Side chains are listed from the residue outwards. * marks the point of attachment. C20 diacid = O=C(O)CCCCCCCCCCCCCCCCCCC(=O)*; C18 diacid = O=C(O)CCCCCCCCCCCCCCCCC(=O)*; γGlu = O=C(O)[C@H](CCC(=O)[*:2])N[*:1]; Chem. 28 = not defined here; Chem. 29 = not defined here; AEEA = NCCOCCOCC(=O)O; Aib = CC(C)(N)C(=O)O

T1: human GIP receptor (human, UniProt P48546 22-466)
T1 sequence (looked up): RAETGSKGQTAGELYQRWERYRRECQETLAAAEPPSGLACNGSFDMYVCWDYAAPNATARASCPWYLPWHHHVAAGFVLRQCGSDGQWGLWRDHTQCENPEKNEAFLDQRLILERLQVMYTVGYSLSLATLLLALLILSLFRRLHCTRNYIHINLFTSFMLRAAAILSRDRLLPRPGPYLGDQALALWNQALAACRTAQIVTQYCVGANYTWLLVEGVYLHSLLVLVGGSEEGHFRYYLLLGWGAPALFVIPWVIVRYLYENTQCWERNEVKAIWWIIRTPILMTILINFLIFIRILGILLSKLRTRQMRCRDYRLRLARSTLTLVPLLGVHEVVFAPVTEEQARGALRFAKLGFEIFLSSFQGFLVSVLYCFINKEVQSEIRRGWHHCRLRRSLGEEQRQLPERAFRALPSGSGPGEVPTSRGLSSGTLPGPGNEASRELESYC

T2: human amylin-3(a) receptor (human, UniProt P30988 25-474; O60896 24-148)
T2 sequence (looked up) 1: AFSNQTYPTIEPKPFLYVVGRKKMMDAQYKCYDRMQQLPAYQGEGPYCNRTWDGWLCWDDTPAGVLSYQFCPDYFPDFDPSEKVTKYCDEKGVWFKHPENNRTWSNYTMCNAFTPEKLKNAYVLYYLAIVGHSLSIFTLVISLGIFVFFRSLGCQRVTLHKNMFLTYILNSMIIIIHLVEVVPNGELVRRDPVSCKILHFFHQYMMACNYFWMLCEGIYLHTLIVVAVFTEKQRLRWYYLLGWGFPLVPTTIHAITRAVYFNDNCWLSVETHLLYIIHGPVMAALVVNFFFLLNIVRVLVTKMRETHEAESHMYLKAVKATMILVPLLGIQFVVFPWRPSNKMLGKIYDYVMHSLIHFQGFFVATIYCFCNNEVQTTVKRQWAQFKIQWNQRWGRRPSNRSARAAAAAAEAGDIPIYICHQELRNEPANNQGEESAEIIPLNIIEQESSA
T2 sequence (looked up) 2: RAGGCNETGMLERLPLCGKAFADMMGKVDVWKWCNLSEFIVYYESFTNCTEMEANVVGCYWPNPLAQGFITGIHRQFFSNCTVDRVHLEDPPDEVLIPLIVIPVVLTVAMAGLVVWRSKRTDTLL


Assays:
Test in all cases: cell-based or functional assay
human GLP-1 receptor [1] = target: T3, human GLP-1 receptor (human, UniProt P43220 24-463)
human GIP receptor [2] = target: T1, human GIP receptor
[3] = target: T2, human amylin-3(a) receptor
human GLP-1 receptor [4] = target: T3, human GLP-1 receptor; remark: listed apart in the source
human GIP receptor [5] = target: T1, human GIP receptor; remark: listed apart in the source
[6] = target: T2, human amylin-3(a) receptor; remark: listed apart in the source

Binder	hGLP-1R Potency, no HSA, EC50 [pM] (human GLP-1 receptor [1])	hGIPR Potency, no HSA, EC50 [pM] (human GIP receptor [2])	hAMYR3 Potency, no HSA, EC50 [pM] [3] [pM]	hGLP-1R Potency, 1% HSA, EC50 [pM] (human GLP-1 receptor [4])	hGIPR Potency, 1% HSA, EC50 [pM] (human GIP receptor [5])	hAMYR3 Potency, 1% HSA, EC50 [pM] [6] [pM]
Compound 95 (peptide) peptide: Y[Aib]EGTFTSDYSILLEEQAAREFIEWLLAGGPSGGGGEASHLSTAQTQRLSAELHK([AEEA-AEEA-γGlu-C18 diacid])LATLPRTETGSGSP-NH2	17.9	3.13	3.76	146	22.8	233
Compound 92 (peptide) peptide: H[Aib]HGTFTSDYSILLEEQAAREFIEWLLAGGPSSGAGQAPGQAPGASHLSTAQTQRLSAELHRLATLPK([AEEA-AEEA-γGlu-C18 diacid])TETGSGSP-NH2	2.55	3.12	2.64	13.4	8.53	75.1
Compound 102 (reading uncertain) peptide: Y[Aib]EGTFTSDYSILLEEQAAREFIEWLLAGGPSSGAGQAPGQAPGASHLSTAQTQRLSAELHQLK(Chem. 28)TLPRTETGSGSP-NH2	11	2.24	3.26	47	12.2	134
Compound 91 (peptide) peptide: H[Aib]HGTFTSDYSILLEEQAAREFIEWLLAGGPSSGAGQAPGQAPGASHLSTAQTQRLSAELHRLK([AEEA-AEEA-γGlu-C18 diacid])TLPRTETGSGSP-NH2	3.79	3.21	2.26	17.4	9.31	28.8
Compound 87 (peptide) peptide: H[Aib]HGTFTSDYSILLEEQAAREFIEWLLAGGPSSGEASHLSTAALGRLSAK([AEEA-AEEA-γGlu-C18 diacid])LHRLATLPRTETGSGSP-NH2	8.49	7.26	4.99	39.3	38.6	36.5
Compound 89 (peptide) peptide: H[Aib]HGTFTSDYSILLEEQAAREFIEWLLAGGPSSGEASHLSTAALGRLSAELHRLK([AEEA-AEEA-γGlu-C18 diacid])TLPRTETGSGSP-NH2	3.86	6.47	3.12	29.5	30.6	39.7
Compound 93 (peptide) peptide: H[Aib]HGTFTSDYSILLEEQAAREFIEWLLAGGPSSGAGQAPGQAPLASHLSTAQTQRLSAELHK([AEEA-AEEA-γGlu-C18 diacid])LATLPRTETGSGSP-NH2	4.11	2.54	2.23	16.4	8.58	66.4
Compound 98 (peptide) peptide: Y[Aib]EGTFTSDYSILLEEQAAREFIEWLLAGGPSSGAGQAPGQAPLASHLSTAQTARLSAELHK([AEEA-AEEA-γGlu-C18 diacid])LATLPRTETGSGSP-NH2	13.3	2.58	2.3	43.1	11.2	108
Compound 88 (peptide) peptide: H[Aib]HGTFTSDYSILLEEQAAREFIEWLLAGGPSSGEASHLSTAALGRLSAELHK([AEEA-AEEA-γGlu-C18 diacid])LATLPRTETGSGSP-NH2	4.12	5.68	3.7	48.8	40.4	102
Compound 10 (reading uncertain) peptide: Y[Aib]EGTFTSDYSILLEEQAAREFIEWLLAGGPSK(Chem. 29)GAPPPSGGGEASELSTAALGRLSAELHELATLPRTETGSGSP-NH2	13.8	2.11	6.8	246	42.4	175

Results, then the binder that gave them:

hGLP-1R Potency, no HSA, EC50 [pM] (human GLP-1 receptor [1])	hGIPR Potency, no HSA, EC50 [pM] (human GIP receptor [2])	hAMYR3 Potency, no HSA, EC50 [pM] [3] [pM]	hGLP-1R Potency, 1% HSA, EC50 [pM] (human GLP-1 receptor [4])	hGIPR Potency, 1% HSA, EC50 [pM] (human GIP receptor [5])	hAMYR3 Potency, 1% HSA, EC50 [pM] [6] [pM]	Binder
16.1	2.3	2.81	109	8.38	132	Compound 97 (peptide) peptide: Y[Aib]EGTFTSDYSILLEEQAAREFIEWLLAGGPSSGAGQAPGASHLSTAQTQRLSAELHK([AEEA-AEEA-γGlu-C18 diacid])LATLPRTETGSGSP-NH2
16.8	3.62	3.73	162	29.9	595	Compound 96 (peptide) peptide: Y[Aib]EGTFTSDYSILLEEQAAREFIEWLLAGGPSGGGGEASHLSTAQTQRLSAELHK([AEEA-AEEA-γGlu-C20 diacid])LATLPRTETGSGSP-NH2
3.24	1.87	3.08	179	129	95.5	Compound 101 (reading uncertain) peptide: H[Aib]HGTFTSDYSILLEEQAAREFIEWLLAGGPSK(Chem. 28)GAPPPSGGGEASHLSTAQTARLSAELHQLATLPRTETGSGSP-NH2
5.85	3.95	3.05	307	217	210	Compound 100 (reading uncertain) peptide: H[Aib]HGTFTSDYSILLEEQAAREFIEWLLAGGPSK(Chem. 28)GAPPPSGGGEASHLSTAQTARLSAELHRLADLPRTETGSGSP-NH2
4.16	5.4	5.45	38.6	32.5	183	Compound 90 (peptide) peptide: H[Aib]HGTFTSDYSILLEEQAAREFIEWLLAGGPSSGEASHLSTAALGRLSAELHRLATLPK([AEEA-AEEA-γGlu-C18 diacid])TETGSGSP-NH2
16.7	2.09	2.82	36.2	7.41	129	Compound 99 (not fully specified (residue 62)) peptide: Y[Aib]EGTFTSDYSILLEEQAAREFIEWLLAGGPSSGALQAPGQAPLASHLSTAQTQRLSAELHKLATLPRTETGSGSP-NH2
16.1	2.9	3.91	130	29.5	377	Compound 94 (peptide) peptide: Y[Aib]EGTFTSDYSILLEEQAAREFIEWLLAGGPSRGEASHLSTAQTQRLSAELHK([AEEA-AEEA-γGlu-C20 diacid])LATLPRTETGSGSP-NH2
